Reference: US20230331827A1, “POTASSIUM CHANNEL INHIBITORS” (priority 2017, published 2023)
Where two headings read alike, the source gives them in different places.

Experiments:
human Kv1.3 (human) [1] = biological target: human Kv1.3 (human) (UniProt P22001); experiment: cell-based or functional assay
human Kv1.1 (human) = human Kv1.1 (human) (UniProt Q09470); experiment: cell-based or functional assay
human Kv1.3 (human) [2] = biological target: human Kv1.3 (human) (UniProt P22001); experiment: cell-based or functional assay; remark: listed apart in the source
β-galactosidase = experiment: phage TRF on β-galactosidase
Sequence of β-galactosidase (P00722 2-1024): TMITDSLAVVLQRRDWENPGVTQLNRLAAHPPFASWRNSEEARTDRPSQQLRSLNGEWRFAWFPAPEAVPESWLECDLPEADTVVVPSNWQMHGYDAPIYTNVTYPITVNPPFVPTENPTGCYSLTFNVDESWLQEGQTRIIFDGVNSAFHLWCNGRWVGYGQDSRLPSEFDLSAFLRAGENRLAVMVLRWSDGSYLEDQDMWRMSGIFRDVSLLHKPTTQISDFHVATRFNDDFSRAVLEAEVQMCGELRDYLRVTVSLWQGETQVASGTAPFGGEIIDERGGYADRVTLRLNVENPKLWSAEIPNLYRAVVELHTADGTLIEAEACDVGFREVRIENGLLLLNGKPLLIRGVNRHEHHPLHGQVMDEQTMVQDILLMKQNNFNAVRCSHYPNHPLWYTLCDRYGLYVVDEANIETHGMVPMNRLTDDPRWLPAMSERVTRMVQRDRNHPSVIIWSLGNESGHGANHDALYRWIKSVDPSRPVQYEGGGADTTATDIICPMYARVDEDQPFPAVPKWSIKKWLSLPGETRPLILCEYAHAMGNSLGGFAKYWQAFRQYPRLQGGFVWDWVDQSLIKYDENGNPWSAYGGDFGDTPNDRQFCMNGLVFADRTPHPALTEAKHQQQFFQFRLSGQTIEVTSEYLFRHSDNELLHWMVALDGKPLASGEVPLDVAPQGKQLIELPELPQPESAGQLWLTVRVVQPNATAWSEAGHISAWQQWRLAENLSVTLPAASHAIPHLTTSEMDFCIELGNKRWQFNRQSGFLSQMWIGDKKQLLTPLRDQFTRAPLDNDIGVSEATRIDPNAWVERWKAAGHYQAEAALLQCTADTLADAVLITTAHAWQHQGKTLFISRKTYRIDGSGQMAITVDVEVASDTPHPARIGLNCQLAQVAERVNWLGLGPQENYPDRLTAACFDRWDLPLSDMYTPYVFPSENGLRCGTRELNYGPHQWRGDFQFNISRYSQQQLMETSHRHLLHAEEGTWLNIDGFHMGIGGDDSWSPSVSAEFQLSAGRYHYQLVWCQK

trypsin = experiment: monoclonal phage ELISA on trypsin

Sequence of human Kv1.1 (human) (Q09470 whole entry): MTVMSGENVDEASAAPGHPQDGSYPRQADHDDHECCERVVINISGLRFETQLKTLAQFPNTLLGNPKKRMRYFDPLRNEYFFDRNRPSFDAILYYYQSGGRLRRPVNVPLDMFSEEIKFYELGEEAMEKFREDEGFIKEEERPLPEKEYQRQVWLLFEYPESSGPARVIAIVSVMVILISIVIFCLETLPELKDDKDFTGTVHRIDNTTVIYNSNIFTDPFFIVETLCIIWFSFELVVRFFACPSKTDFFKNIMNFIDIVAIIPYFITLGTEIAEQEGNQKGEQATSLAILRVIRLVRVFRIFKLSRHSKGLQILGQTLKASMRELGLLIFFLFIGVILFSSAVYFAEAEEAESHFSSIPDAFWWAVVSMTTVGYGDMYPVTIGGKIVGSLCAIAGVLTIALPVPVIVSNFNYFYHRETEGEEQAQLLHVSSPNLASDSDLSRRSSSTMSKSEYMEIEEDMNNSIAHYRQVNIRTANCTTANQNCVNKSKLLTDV
Sequence of human Kv1.3 (human) (P22001 whole entry): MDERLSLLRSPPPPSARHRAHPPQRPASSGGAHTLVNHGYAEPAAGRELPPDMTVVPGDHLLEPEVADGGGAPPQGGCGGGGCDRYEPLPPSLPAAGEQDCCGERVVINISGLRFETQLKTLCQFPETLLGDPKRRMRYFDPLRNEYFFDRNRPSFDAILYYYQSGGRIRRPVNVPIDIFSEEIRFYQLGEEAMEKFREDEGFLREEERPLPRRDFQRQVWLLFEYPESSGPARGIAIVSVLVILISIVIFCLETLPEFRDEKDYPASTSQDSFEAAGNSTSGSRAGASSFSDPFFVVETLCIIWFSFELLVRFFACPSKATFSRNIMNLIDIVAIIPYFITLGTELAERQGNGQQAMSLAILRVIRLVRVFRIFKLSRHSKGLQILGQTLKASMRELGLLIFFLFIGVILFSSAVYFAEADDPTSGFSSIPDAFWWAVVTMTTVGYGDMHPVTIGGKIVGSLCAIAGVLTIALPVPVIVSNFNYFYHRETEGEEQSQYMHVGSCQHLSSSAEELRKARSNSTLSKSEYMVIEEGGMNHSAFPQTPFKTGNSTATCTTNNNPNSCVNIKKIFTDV

Binder	IC50, huKv1.3 current, QPatch patch clamp (human Kv1.3 (human) [1]) [nM]	Kv1.1 IC50, QPatch patch clamp (human Kv1.1 (human)) [nM]	Fold difference (Kv1.1 IC50 against Kv1.3 IC50) (human Kv1.3 (human) [2]) [fold]	Kv1.3 IC50, QPatch patch clamp (human Kv1.3 (human) [2]) [nM]	TRF signal (β-galactosidase)	also measured
KB_A12_KTX (antibody) VH: EVQLVESGGGLVRPGGSLRLSCAASGFTFSSYAMSWVRQAPGKGLEWVSAISGSGGSTYYADSVKGRFTISRDNTKNSLYLQMTSLRADDTAFYYCVKDFGPGYGTGWFDYWGPGTLVTVSS VL: QSVLTQPPSVSEAPRQRVTITCSGSSSNIGNNAVNWYQQLPGKAPKLLIYAAGRGVEINVKCSGSPQCLKPCKDAGMRFGKCMNRKCHCTPKANSGVSDRFSAAKSGTSASLAINGLRSEDEADYYCAAWDDSLNGYVFGTGTKLTVLGQP	430	4800	3	1540	–	IC50, huKv1.3 current, QPatch patch clamp (human Kv1.3 (human) [2]): > 10000 nM
KB_A12_B-gal_F07 (scFv, V domains shown) VH: EVQLVESGGGLVRPGGSLRLSCAASGFTFSSYAMSWVRQAPGKGLEWVSAISGSGGSTYYADSVKGRFTISRDNTKNSLYLQMTSLRADDTAFYYCVKDFGPGYGTGWFDYWGPGTLVTVSS VL: AVNWYQQLPGKAPKLLIYAAGRCRTTANVRRHCKQDSDCLAGCVCGPNGFCGANSGVSDRFSAAKSGTSASLAINGLRSEDEADYYCAAWDDSLNGYVFGTGTKLTVLG	–	–	–	–	246000	–
KB_A12_B-gal_H07 (scFv, V domains shown) VH: EVQLVESGGGLVRPGGSLRLSCAASGFTFSSYAMSWVRQAPGKGLEWVSAISGSGGSTYYADSVKGRFTISRDNTKNSLYLQMTSLRADDTAFYYCVKDFGPGYGTGWFDYWGPGTLVTVSS VL: AVNWYQQLPGKAPKLLIYAAGRCTQTALIRRRCKQDSDCLAGCVCGPNGFCGANSGVSDRFSAAKSGTSASLAINGLRSEDEADYYCAAWDDSLNGYVFGTGTKLTVLG	–	–	–	–	62000	–
KB_A12_Odk2 (antibody, V domains shown) VH: EVQLVESGGGLVRPGGSLRLSCAASGFTFSSYAMSWVRQAPGKGLEWVSAISGSGGSTYYADSVKGRFTISRDNTKNSLYLQMTSLRADDTAFYYCVKDFGPGYGTGWFDYWGPGTLVTVSS VL: QSVLTQPPSVSEAPRQRVTITCSGSSSNIGNNAVNWYQQLPGKAPKLLIYAAGRGVPTDVKCRGSPQCIQPCKDAGMRFGKCMNGKCHCTPKANSGVSDRFSAAKSGTSASLAINGLRSEDEADYYCAAWDDSLNGYVFGTGTKLTVLG	222	2750	6	457	–	–
KB_A12_AnTx-N17A/F32T (antibody, V domains shown) VH: EVQLVESGGGLVRPGGSLRLSCAASGFTFSSYAMSWVRQAPGKGLEWVSAISGSGGSTYYADSVKGRFTISRDNTKNSLYLQMTSLRADDTAFYYCVKDFGPGYGTGWFDYWGPGTLVTVSS VL: QSVLTQPPSVSEAPRQRVTITCSGSSSNIGNNAVNWYQQLPGKAPKLLIYAAGRQKECTGPQHCTNFCRKAKCTHGKCMNRKCKCTNCKANSGVSDRFSAAKSGTSASLAINGLRSEDEADYYCAAWDDSLNGYVFGTGTKLTVLG	85	10300	94	110	–	–
KB_A07_HsTx1 (antibody, V domains shown) VH: EVQLVESGGGLVRPGGSLRLSCAASGFTFSSYAMSWVRQAPGKGLEWVSAISGSGGSTYYADSVKGRFTISRDNTKNSLYLQMTSLRADDTAFYYCVKDFGPGYGTGWFDYWGPGTLVTVSS VL: NWYQQKPGKAPKLLIYAAGVASCRTPKDCADPCRKETGCPYGKCMNRKCKCNRCSRSGVPSRFSGSGSGTDFTLTISSLQPEDFATYYCQQGASPPYTFGQGTKVEIKR	4.7	–	–	–	–	–
C09 (EET 5-3 KnotBody) (scFv, V domains shown) VH: EVQLVESGGGLVRPGGSLRLSCAASGFTFSSYAMSWVRQAPGKGLEWVSAISGSGGSTYYADSVKGRFTISRDNTKNSLYLQMTSLRADDTAFYYCVKDFGPGYGTGWFDYWGPGTLVTVSS VL: SEAPRQRVTITCGGKRCGPNGFCGSGSDGGVCPRILMRCKQDSDCLAGCTSNWYQQKPGQAPVLVVQDDSVRPSGIPERFSGSNSGNTATLTISRVEAGDGADYYCQVWDISSDLGVFGGGTKLTVLG	–	–	–	–	–	ELISA signal (trypsin): 9820
KB_A12_HsTx1 (antibody, V domains shown) VH: EVQLVESGGGLVRPGGSLRLSCAASGFTFSSYAMSWVRQAPGKGLEWVSAISGSGGSTYYADSVKGRFTISRDNTKNSLYLQMTSLRADDTAFYYCVKDFGPGYGTGWFDYWGPGTLVTVSS VL: NWYQQLPGKAPKLLIYAAGRASCRTPKDCADPCRKETGCPYGKCMNRKCKCNRCANSGVSDRFSAAKSGTSASLAINGLRSEDEADYYCAAWDDSLNGYVFGTGTKLTVLG	3.9	650	43	15	–	–
E01 (EET 5-3 KnotBody) (scFv, V domains shown) VH: EVQLVESGGGLVRPGGSLRLSCAASGFTFSSYAMSWVRQAPGKGLEWVSAISGSGGSTYYADSVKGRFTISRDNTKNSLYLQMTSLRADDTAFYYCVKDFGPGYGTGWFDYWGPGTLVTVSS VL: AVNWYQQLPGKAPKLLIYAAGGCGPNGFCGSGSDGGVCPRILMRCKQDSDCLAGCGIHSGVSDRFSDSKSGTSASLAISGLQSEDEADYYCAAWDDSLNGYVFGTGTKLTVLG	–	–	–	–	–	ELISA signal (trypsin): 128000
KB_A12_ADWX1 short (antibody, V domains shown) VH: EVQLVESGGGLVRPGGSLRLSCAASGFTFSSYAMSWVRQAPGKGLEWVSAISGSGGSTYYADSVKGRFTISRDNTKNSLYLQMTSLRADDTAFYYCVKDFGPGYGTGWFDYWGPGTLVTVSS VL: NWYQQLPGKAPKLLIYAAGRVKCKHSRQCLKPCKDAGMRFGKCTNGKCHCTPKANSGVSDRFSAAKSGTSASLAINGLRSEDEADYYCAAWDDSLNGYVFGTGTKLTVLG	170	1400	6	251	–	–
KB_A12_Odk2 short (antibody, V domains shown) VH: EVQLVESGGGLVRPGGSLRLSCAASGFTFSSYAMSWVRQAPGKGLEWVSAISGSGGSTYYADSVKGRFTISRDNTKNSLYLQMTSLRADDTAFYYCVKDFGPGYGTGWFDYWGPGTLVTVSS VL: NWYQQLPGKAPKLLIYAAGRVKCRGSPQCIQPCKDAGMRFGKCMNGKCHCTPKANSGVSDRFSAAKSGTSASLAINGLRSEDEADYYCAAWDDSLNGYVFGTGTKLTVLG	64	380	8	49	–	–
KB_A12_ShK (antibody, V domains shown) VH: EVQLVESGGGLVRPGGSLRLSCAASGFTFSSYAMSWVRQAPGKGLEWVSAISGSGGSTYYADSVKGRFTISRDNTKNSLYLQMTSLRADDTAFYYCVKDFGPGYGTGWFDYWGPGTLVTVSS VL: NWYQQLPGKAPKLLIYAAGRRSCIDTIPKSRCTAFQCKHSMKYRLSFCRKTCGTCANSGVSDRFSAAKSGTSASLAINGLRSEDEADYYCAAWDDSLNGYVFGTGTKLTVLG	8.6	40	3	13	–	IC50, huKv1.3 current, QPatch patch clamp (human Kv1.3 (human) [2]): 20 nM
KB_A12_Vm24 (antibody, V domains shown) VH: EVQLVESGGGLVRPGGSLRLSCAASGFTFSSYAMSWVRQAPGKGLEWVSAISGSGGSTYYADSVKGRFTISRDNTKNSLYLQMTSLRADDTAFYYCVKDFGPGYGTGWFDYWGPGTLVTVSS VL: QSVLTQPPSVSEAPRQRVTITCSGSSSNIGNNAVNWYQQLPGKAPKLLIYAAGRAAAISCVGSPECPPKCRAQGCKNGKCMNRKCKCYYCANSGVSDRFSAAKSGTSASLAINGLRSEDEADYYCAAWDDSLNGYVFGTGTKLTVLG	16	1220	102	12	–	–
KB_A12_B-gal_H02 (scFv, V domains shown) VH: EVQLVESGGGLVRPGGSLRLSCAASGFTFSSYAMSWVRQAPGKGLEWVSAISGSGGSTYYADSVKGRFTISRDNTKNSLYLQMTSLRADDTAFYYCVKDFGPGYGTGWFDYWGPGTLVTVSS VL: AVNWYQQLPGKAPKLLIYAAGRCEQTSVIRRHCKQDSDCLAGCVCGPNGFCGANSGVSDRFSAAKSGTSASLAINGLRSEDEADYYCAAWDDSLNGYVFGTGTKLTVLG	–	–	–	–	501000	–
KB_A12_B-gal_F09 (scFv, V domains shown) VH: EVQLVESGGGLVRPGGSLRLSCAASGFTFSSYAMSWVRQAPGKGLEWVSAISGSGGSTYYADSVKGRFTISRDNTKNSLYLQMTSLRADDTAFYYCVKDFGPGYGTGWFDYWGPGTLVTVSS VL: AVNWYQQLPGKAPKLLIYAAGRCIATSHIRRHCKQDSDCLAGCVCGPNGFCGANSGVSDRFSAAKSGTSASLAINGLRSEDEADYYCAAWDDSLNGYVFGTGTKLTVLG	–	–	–	–	258000	–
KB_A12_B-gal_F11 (scFv, V domains shown) VH: EVQLVESGGGLVRPGGSLRLSCAASGFTFSSYAMSWVRQAPGKGLEWVSAISGSGGSTYYADSVKGRFTISRDNTKNSLYLQMTSLRADDTAFYYCVKDFGPGYGTGWFDYWGPGTLVTVSS VL: AVNWYQQLPGKAPKLLIYAAGRCHETAQIRRRCKQDSDCLAGCVCGPNGFCGANSGVSDRFSAAKSGTSASLAINGLRSEDEADYYCAAWDDSLNGYVFGTGTKLTVLG	–	–	–	–	531000	–
KB_A12_B-gal_F03 (scFv, V domains shown) VH: EVQLVESGGGLVRPGGSLRLSCAASGFTFSSYAMSWVRQAPGKGLEWVSAISGSGGSTYYADSVKGRFTISRDNTKNSLYLQMTSLRADDTAFYYCVKDFGPGYGTGWFDYWGPGTLVTVSS VL: AVNWYQQLPGKAPKLLIYAAGRCLATTSIRRHCKQDSDCLAGCVCGPNGFCGANSGVSDRFSAAKSGTSASLAINGLRSEDEADYYCAAWDDSLNGYVFGTGTKLTVLG	–	–	–	–	289000	–
KB_A12_ADWX1 (antibody, V domains shown) VH: EVQLVESGGGLVRPGGSLRLSCAASGFTFSSYAMSWVRQAPGKGLEWVSAISGSGGSTYYADSVKGRFTISRDNTKNSLYLQMTSLRADDTAFYYCVKDFGPGYGTGWFDYWGPGTLVTVSS VL: QSVLTQPPSVSEAPRQRVTITCSGSSSNIGNNAVNWYQQLPGKAPKLLIYAAGRVGINVKCKHSRQCLKPCKDAGMRFGKCTNGKCHCTPKANSGVSDRFSAAKSGTSASLAINGLRSEDEADYYCAAWDDSLNGYVFGTGTKLTVLG	270	–	–	–	–	–
